From patent publication US20220273713A1, “METHOD OF INHIBITING OR ACTIVATING GAMMA DELTA T CELLS” (The University of Melbourne, priority 2019, published 2022)
Values joined by “and” are separate entries in the source; they are usually repeats but may differ in a detail not shown here. Equal values may be shown once.

Legend:
[1] = target: 'hybrid' Vγ9+Vδ1+ γδTCR (TCR #6 γ-chain paired with an irrelevant Vδ1+ chain), soluble ectodomain (human); experiment: SPR, γδTCR ectodomain immobilized on streptavidin chip, soluble BTN2A1 200-3.1 µM, KD derived at equilibrium
Chain of 'hybrid' Vγ9+Vδ1+ γδTCR (TCR #6 γ-chain paired with an irrelevant Vδ1+ chain), soluble ectodomain (human) (TCR gamma, as listed by the source): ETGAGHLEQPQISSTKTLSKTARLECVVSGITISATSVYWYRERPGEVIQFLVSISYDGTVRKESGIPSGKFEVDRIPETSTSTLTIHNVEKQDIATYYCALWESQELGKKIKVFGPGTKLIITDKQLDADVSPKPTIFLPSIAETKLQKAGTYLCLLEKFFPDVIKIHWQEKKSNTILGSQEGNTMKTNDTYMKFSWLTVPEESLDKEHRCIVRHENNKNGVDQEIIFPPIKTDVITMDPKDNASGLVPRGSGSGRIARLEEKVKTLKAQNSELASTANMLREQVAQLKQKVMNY

[2] = target: 'hybrid' Vγ9+Vδ1+ γδTCR (TCR #6 γ-chain paired with an irrelevant Vδ1+ chain), soluble ectodomain (human); experiment: surface plasmon resonance, binding at equilibrium (saturation plot with Scatchard inset, Expt. 1 and Expt. 2), soluble BTN2A1 200-3.1 µM over immobilized hybrid TCR
Vγ9^+ T cells = details: cited from earlier work
Vγ9Vδ2 cells = experiment: Luminex (Vγ9Vδ2): cytokine/chemokine secretion by pre-expanded Vγ9Vδ2 cells; type: cell-based, human; details: for GMCSF / ICAM-1 / IFNγ / IL-4 / IL-8 / IL-13 / IL-17A / MIP-1a / MIP-1b / TNFα / sE-selectin / sP-Selectin: 16 hrs, antibodies 10 μg/ml, Zoledronic acid 4 μM, HMBPP 0.5 ng/ml, duplicates, 0 set to 0.1; for cytokine/chemokine secretion, in words: vs isotype (BM4);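 for all read-outs here: Vγ9Vδ2 cells purified from PBMC, activated 48 h with CD3 and CD28 plus IL-2, expanded 14 days in IL-2, then thawed and rested overnight in IL-2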
Description: Briefly, Vγ9Vδ2 cells were isolated from 1 healthy donor (Red Cross Australia) and 1 cancer patient derived PBMC using TCRγ/δ+ T Cell Isolation Kit (Miltenyi). Cells were stimulated for 48 hours in TCRPMI supplemented with 100u/ml IL-2, CD3 (10 μg/ml) and CD28 (1 μg/ml). Cells were washed and grown for 14 days in TCRPMI supplemented with 100u/ml IL-2 at 37 degrees C. and 5% CO2, and then frozen down. […] Vγ9Vδ2 were defrosted and rested overnight in TCRPMI supplemented with 50u/ml IL-2 at 37 degrees C. and 5% CO2. […] All samples were run with appropriate controls and standards.

BTN2A1 B30.2 domain = BTN2A1 B30.2 domain (Homo sapiens, UniProt Q7KYR7); details: ITC, 25° C., B30.2 domain 100 μM, pAg 2 mM
Chain of BTN2A1 B30.2 domain (Q7KYR7 310-506 limits assumed): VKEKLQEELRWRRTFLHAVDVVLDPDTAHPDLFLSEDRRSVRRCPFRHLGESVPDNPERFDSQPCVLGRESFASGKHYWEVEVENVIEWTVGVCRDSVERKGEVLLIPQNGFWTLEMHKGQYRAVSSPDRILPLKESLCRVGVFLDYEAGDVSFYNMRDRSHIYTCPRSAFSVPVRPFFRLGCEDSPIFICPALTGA
Description: ITC experiments were conducted on a MicroCal ITC200 instrument (GE Healthcare) at 25° C. […] Data were analysed with Microcal Origin software.

[3] = target: T1, human BTN3A1, isoform 1, on cells (human, UniProt O00481 30-513); experiment: FRET between C-terminal CFP/YFP tags on co-transfected NIH-3T3 cells, flow cytometry (FIG. 5D, FIG. 20A)
T1 construct: whole, on cells
T1 sequence (O00481 30-513 limits assumed): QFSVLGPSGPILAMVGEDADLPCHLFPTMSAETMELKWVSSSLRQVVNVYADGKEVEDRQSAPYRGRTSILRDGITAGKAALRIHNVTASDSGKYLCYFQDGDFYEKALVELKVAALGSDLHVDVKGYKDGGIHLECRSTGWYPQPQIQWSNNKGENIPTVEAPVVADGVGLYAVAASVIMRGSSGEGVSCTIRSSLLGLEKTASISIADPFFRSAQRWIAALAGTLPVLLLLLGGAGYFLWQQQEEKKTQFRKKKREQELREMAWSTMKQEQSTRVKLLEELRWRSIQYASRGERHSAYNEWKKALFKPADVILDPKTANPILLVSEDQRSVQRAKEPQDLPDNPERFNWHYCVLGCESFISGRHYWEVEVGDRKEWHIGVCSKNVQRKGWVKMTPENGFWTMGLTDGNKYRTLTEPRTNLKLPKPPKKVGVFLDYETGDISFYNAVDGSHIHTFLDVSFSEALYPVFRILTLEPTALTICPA
Description: FRET was detected in a compensated yellow 670/30 channel. […] The frequency of cells identified as FRET⁺ was examined on gated CFP⁺YFP⁺NIH-3T3 cells for dual tranfectants, and either CFP⁺ or YFP⁺ for single transfectants.

human BTN2A2, isoform 1 = target: T2, human BTN2A2, isoform 1 (human, UniProt Q8WVV5 33-523); experiment: told in the legend of FIG. 24; data in FIG. 11 (ELISA, transfected cells)
T2 construct: whole, on cells
T2 sequence (looked up): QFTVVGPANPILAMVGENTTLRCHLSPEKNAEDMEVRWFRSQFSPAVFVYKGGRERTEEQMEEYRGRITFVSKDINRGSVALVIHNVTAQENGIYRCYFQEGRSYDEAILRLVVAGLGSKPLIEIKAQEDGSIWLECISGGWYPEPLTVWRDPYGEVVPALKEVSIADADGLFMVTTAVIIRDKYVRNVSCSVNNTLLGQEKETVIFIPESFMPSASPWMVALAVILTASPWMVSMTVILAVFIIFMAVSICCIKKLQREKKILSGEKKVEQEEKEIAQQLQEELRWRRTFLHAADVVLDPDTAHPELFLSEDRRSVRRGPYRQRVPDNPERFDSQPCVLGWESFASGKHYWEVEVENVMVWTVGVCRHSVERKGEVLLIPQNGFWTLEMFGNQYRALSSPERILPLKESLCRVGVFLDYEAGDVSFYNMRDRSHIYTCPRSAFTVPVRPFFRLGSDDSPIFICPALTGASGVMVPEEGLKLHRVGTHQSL
Description: Purified recombinant proteins (0.2-20 μg/ml) were immobilized in microplate wells in PBS buffer overnight at 4° C. Non-specific binding was then blocked by incubation in PBS containing 0.05% tween 20 plus 5% skim milk powder or 0.5% (w/v) bovine serum albumin (BSA). The wells were then incubated for 60 minutes at room temperature in the presence of antibodies at 2-5 μg/mL in PBS/0.05% tween-20/2% skim milk powder or 0.5% BSA, followed by washing in PBS/0.05% tween-20. Plates were then incubated with HRP-labelled sheep anti-mouse IgG secondary antibody (Chemicon), or goat anti-mouse IgG secondary antibody (Millipore) followed by detection using 3,3′,5,5′-tetramethylbenzidine substrate (Sigma) and absorbance was measured at 450 nm using a plate reader.

[4] = system: in vitro pre-expanded CD3+Vδ2+ γδ T cells; experiment: HMBPP or anti-CD3/anti-CD28 activation of purified in vitro-expanded Vδ2+ T cells ± neutralizing anti-BTN2A1 mAb; type: cell-based, human; details: HMBPP 0.5 ng/ml, 10 μg/ml neutralizing anti-BTN2A1 mAb, no APCs
Description: CD25 expression was determined by flow cytometry, and IFN-γ concentration was determined by cytometric bead array (BD Bioscience) as per manufacturer instructions.

[5] = system: Vδ2^+ γδ T cells among PBMCs; experiment: γδ T cell functional assay: PBMC ± zoledronate ± anti-BTN2A1 mAb; type: cell-based, human; details: PBMCs 24 h, 4 μM zoledronate, 10 μg/ml anti-BTN2A1 mAb, compared to isotype control mAb
Description: Fresh PBMC (2×10^6) were cultured in 24 well plates ±zoledronate (4 μM, Sigma) and purified mAb against BTN2A1, BTN3A1, or isotype control IgG1κ (MOPC-21, BioLegend) (10 μg/ml) After 24 h CD3ε^+ γδTCR^+ Vδ2^+/− γδ T cell activation was assessed by flow cytometry and cytokine production was determined by cytometric bead array according to manufacturer instructions (BD). For the assays in FIG. 14, PBMC were cultured in 24 well plates and blocked for 30 min with mAb against BTN2A1, BTN3A1, or isotype control (10 μg/ml). […] Cells were surface-stained and then fixed and permeabilized using Foxp3/Transcription Factor Staining Buffer Set (Invitrogen) according to the manufacturer's protocol followed by staining with anti-IFN-γ (Biolegend). For co-culture assays, purified and in vitro-expanded γδ T cells (5×10^5) were incubated in 96 well plates with APCs (3×10^5) for 24 h ±zoledronate (4 μM), and γδ T cell activation was determined by flow cytometry as above.

[6] = γδT cells from patient 1 (melanoma patient)

Molecule: soluble BTN2A1 ectodomain (IgV and IgC domains; Gln29 to Ser245) with C-terminal linker, Avi-tag and His6-tag (ligand)
- Kd [1]: 50 µM
- Kd [2]: 50.4 µM

Molecule: CC(=CCOP(=O)(O)OP(=O)(O)O)CO [HMBPP, 4-hydroxy-3-methyl-but-2-enyl pyrophosphate, reference compound]
- sensitivity for HMBPP relative to IPP (Vγ9^+ T cells): ~1000 fold
- GMCSF (Vγ9Vδ2 cells; γδT cells from a healthy donor): 2375.52 pg/mL and 2349.07 pg/mL
- ICAM-1 (Vγ9Vδ2 cells; γδT cells from a healthy donor): 575.02 pg/mL and 570.14 pg/mL
- IFNγ (Vγ9Vδ2 cells; γδT cells from a healthy donor): 751.87 pg/mL and 798.38 pg/mL
- IL-4 (Vγ9Vδ2 cells; γδT cells from a healthy donor): 137.56 pg/mL and 117.91 pg/mL
- IL-8 (Vγ9Vδ2 cells; γδT cells from a healthy donor): 0.1 pg/mL
- IL-13 (Vγ9Vδ2 cells; γδT cells from a healthy donor): 84.37 pg/mL and 87.99 pg/mL
- IL-17A (Vγ9Vδ2 cells; γδT cells from a healthy donor): 8.39 pg/mL and 9.97 pg/mL
- MIP-1a (Vγ9Vδ2 cells; γδT cells from a healthy donor): 395.47 pg/mL and 392.74 pg/mL
- MIP-1b (Vγ9Vδ2 cells; γδT cells from a healthy donor): 19239.36 pg/mL and 20123.08 pg/mL
- TNFα (Vγ9Vδ2 cells; γδT cells from a healthy donor): 2186.67 pg/mL and 2148.53 pg/mL
- sE-selectin (Vγ9Vδ2 cells; γδT cells from a healthy donor): 387.87 pg/mL and 373.47 pg/mL
- sP-Selectin (Vγ9Vδ2 cells; γδT cells from a healthy donor): 3183.34 pg/mL and 3082.95 pg/mL
- GMCSF (Vγ9Vδ2 cells; [6]): 2172.54 pg/mL and 2625.54 pg/mL
- ICAM-1 (Vγ9Vδ2 cells; [6]): 729.5 pg/mL and 885.22 pg/mL
- IFNγ (Vγ9Vδ2 cells; [6]): 723.16 pg/mL and 791.56 pg/mL
- IL-4 (Vγ9Vδ2 cells; [6]): 875.51 pg/mL and 1027.45 pg/mL
- IL-13 (Vγ9Vδ2 cells; [6]): 478.3 pg/mL and 602.86 pg/mL
- IL-17A (Vγ9Vδ2 cells; [6]): 9.23 pg/mL and 10.85 pg/mL
- MIP-1a (Vγ9Vδ2 cells; [6]): 321.54 pg/mL and 383.73 pg/mL
- MIP-1b (Vγ9Vδ2 cells; [6]): 9453.77 pg/mL and 12721.52 pg/mL
- TNFα (Vγ9Vδ2 cells; [6]): 2973.1 pg/mL and 3657.48 pg/mL
- sE-selectin (Vγ9Vδ2 cells; [6]): 373.32 pg/mL and 372.16 pg/mL
- sP-Selectin (Vγ9Vδ2 cells; [6]): 2542.23 pg/mL and 2775.99 pg/mL
- binding of pAg to BTN2A1 B30.2 domain (BTN2A1 B30.2 domain): no clear interaction

B1: human BTNL8, isoform 1, on cells (ligand, UniProt Q6UX41 18-500, looked up)
chain: QWQVFGPDKPVQALVGEDAAFSCFLSPKTNAEAMEVRFFRGQFSSVVHLYRDGKDQPFMQMPQYQGRTKLVKDSIAEGRISLRLENITVLDAGLYGCRISSQSYYQKAIWELQVSALGSVPLISITGYVDRDIQLLCQSSGWFPRPTAKWKGPQGQDLSTDSRTNRDMHGLFDVEISLTVQENAGSISCSMRHAHLSREVESRVQIGDTFFEPISWHLATKVLGILCCGLFFGIVGLKIFFSKFQWKIQAELDWRRKHGQAELRDARKHAVEVTLDPETAHPKLCVSDLKTVTHRKAPQEVPHSEKRFTRKSVVASQSFQAGKHYWEVDGGHNKRWRVGVCRDDVDRRKEYVTLSPDHGYWVLRLNGEHLYFTLNPRFISVFPRTPPTKIGVFLDYECGTISFFNINDQSLIYTLTCRFEGLLRPYIEYPSYNEQNGTPIVICPVTQESEKEASWQRASAIPETSNSESSSQATTPFLPRGEM
notes: whole, on cells; also called B7NL8
- binding result [3]: no binding

B2: anti-BTN2A1 antibody 259 (antibody, V domains shown)
VH: EVQLLESGGGLVQPGGSLRLSCAASGFTFSSYAMQWVRQAPGKGLEWVSRIGPSGGGTMYADSVKGRFTISRDNSKNTLYLQMNSLRAEDMAVYYCARDLGGLSVLFDYWGQGTLVTVSS
VL: QSELTQPPSASETPGQRVTISCSGSSSNIGSNTVSWFQQLPGSAPRLLIYNDHRRPSGVPDRFSGSKSGTSASLVISGLQSQDEADYYCSAWDDSLNGVVFGGGTKLTVL
- binding result (human BTN2A2, isoform 1): no binding

B3: Hu34C1: antagonist anti-BTN2A1 mAb; VH SEQ ID NO: 100, VL SEQ ID NO: 101; human IgG4 Fab, murine IgG2a Fc (antibody, V domains shown)
VH: EVQLLESGGGLVQPGGSLRLSCAASGFTFSHYPMIWVRQAPGKGLEWVSSISSSGGSTHYADSVKGRFTISRDNSKNTLYLQMNSLRAEDTAMYYCAALVSDTDFWGQGTLVTVSS
VL: DIQMTQSPATLSVSPGESTTLSCRASQSVTSNLAWYQQKPGQAPSLLIYGASTRATGIPARFSGSGSGTEFTLTISSLQSEDSAVYYCQQYNNWPRTFGQGTKVEIK
modifications: human IgG4 Fab, murine IgG2a Fc constant regions; amino acid sequence of Hu34C VH; amino acid sequence of Hu34C VL
- HMBPP-induced activation (CD25 upregulation, IFN-γ production) [4]: failed to upregulate CD25 and produce IFN-γ
- cytokine/chemokine secretion, in words (Vγ9Vδ2 cells; cancer patient derived Vγ9Vδ2 cells): reduction in levels of GMCSF, ICAM1 (to undetectable levels), IFNγ, IL-13, MIP1α and MIP1β as well as sE-selectin
- cytokine/chemokine secretion, in words (Vγ9Vδ2 cells; healthy donor derived Vγ9Vδ2 cells): downregulation of MIP1α and b as well as GMCSF
- ICAM-1 (Vγ9Vδ2 cells; γδT cells from a healthy donor): 0.1 pg/mL
- IFNγ (Vγ9Vδ2 cells; γδT cells from a healthy donor): 0.1 pg/mL
- IL-4 (Vγ9Vδ2 cells; γδT cells from a healthy donor): 0.1 pg/mL
- IL-8 (Vγ9Vδ2 cells; γδT cells from a healthy donor): 0.1 pg/mL
- IL-13 (Vγ9Vδ2 cells; γδT cells from a healthy donor): 0.1 pg/mL
- IL-17A (Vγ9Vδ2 cells; γδT cells from a healthy donor): 0.1 pg/mL
- MIP-1a (Vγ9Vδ2 cells; γδT cells from a healthy donor): 9.16 pg/mL and 7.83 pg/mL
- MIP-1b (Vγ9Vδ2 cells; γδT cells from a healthy donor): 50.62 pg/mL and 43.18 pg/mL
- TNFα (Vγ9Vδ2 cells; γδT cells from a healthy donor): 0.1 pg/mL
- sE-selectin (Vγ9Vδ2 cells; γδT cells from a healthy donor): 0.1 pg/mL
- sP-Selectin (Vγ9Vδ2 cells; γδT cells from a healthy donor): 0.1 pg/mL
- GMCSF (Vγ9Vδ2 cells; [6]): 8.09 pg/mL and 9.22 pg/mL
- ICAM-1 (Vγ9Vδ2 cells; [6]): 0.1 pg/mL
- IFNγ (Vγ9Vδ2 cells; [6]): 0.1 pg/mL
- IL-4 (Vγ9Vδ2 cells; [6]): 0.1 pg/mL
- IL-8 (Vγ9Vδ2 cells; [6]): 0.1 pg/mL
- IL-13 (Vγ9Vδ2 cells; [6]): 16.14 pg/mL and 14.86 pg/mL
- IL-17A (Vγ9Vδ2 cells; [6]): 0.1 pg/mL
- MIP-1a (Vγ9Vδ2 cells; [6]): 50.75 pg/mL and 51.38 pg/mL
- MIP-1b (Vγ9Vδ2 cells; [6]): 239.49 pg/mL and 252.05 pg/mL
- TNFα (Vγ9Vδ2 cells; [6]): 0.1 pg/mL
- sP-Selectin (Vγ9Vδ2 cells; [6]): 0.1 pg/mL
- indicators of TCR-dependent activation (CD25 induction, CD3 downregulation, IFN-γ and TNF production) [5]: significantly inhibited
